Earlier results as cited in article PMC3385930.

Columns and labels:
Band 3 (Homo sapiens) = Band 3 (Homo sapiens) (UniProt P02730)
Adducin (Homo sapiens) = Adducin (Homo sapiens) (UniProt P35611)

UniProt P02730, sequence (P02730 whole entry): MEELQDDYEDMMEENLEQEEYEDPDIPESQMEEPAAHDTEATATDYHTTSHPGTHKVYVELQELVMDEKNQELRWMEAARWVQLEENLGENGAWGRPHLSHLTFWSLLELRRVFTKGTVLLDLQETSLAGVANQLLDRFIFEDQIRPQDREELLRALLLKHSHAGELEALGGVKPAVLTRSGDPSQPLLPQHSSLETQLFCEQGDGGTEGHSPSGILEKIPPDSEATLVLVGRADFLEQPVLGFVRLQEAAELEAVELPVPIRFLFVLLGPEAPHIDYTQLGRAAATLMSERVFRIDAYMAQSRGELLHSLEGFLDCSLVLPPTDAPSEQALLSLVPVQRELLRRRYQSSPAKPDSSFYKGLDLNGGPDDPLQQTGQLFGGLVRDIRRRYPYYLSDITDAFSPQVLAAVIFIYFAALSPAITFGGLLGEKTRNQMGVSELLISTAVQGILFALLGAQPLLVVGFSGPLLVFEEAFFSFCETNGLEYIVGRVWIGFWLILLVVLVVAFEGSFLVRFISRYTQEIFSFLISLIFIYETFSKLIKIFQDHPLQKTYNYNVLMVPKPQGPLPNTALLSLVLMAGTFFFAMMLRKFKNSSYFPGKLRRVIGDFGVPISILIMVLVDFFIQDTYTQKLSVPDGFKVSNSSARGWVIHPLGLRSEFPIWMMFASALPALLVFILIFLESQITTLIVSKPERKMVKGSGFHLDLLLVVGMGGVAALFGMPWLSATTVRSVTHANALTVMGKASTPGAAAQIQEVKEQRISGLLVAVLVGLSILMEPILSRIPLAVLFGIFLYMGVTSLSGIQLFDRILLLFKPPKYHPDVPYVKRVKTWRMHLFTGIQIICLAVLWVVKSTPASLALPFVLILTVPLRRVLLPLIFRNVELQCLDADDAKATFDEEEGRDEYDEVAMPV

Kd (Band 3 (Homo sapiens)) [nM] | Kd (Adducin (Homo sapiens)) [nM] | Substance
100 | – | Adducin (from UniProt P35611)
– | 100 | Stomatin (from UniProt P27105)
